Here are results for one molecule from PMC11609306, “Phosphorylation determines the glucose metabolism reprogramming and tumor-promoting activity of sine oculis homeobox 1” (Signal Transduction and Targeted Therapy, 2024).

The target of one experiment is T1, His-tagged ERK1 (UniProt P27361 1-379).
T1 construct: Extracellular signal-regulated protein kinase 1 (ERK1); Built in pET28a; also called His-tagged ERK1/2; source: E. coli BL21, purified (His-Sepharose beads)
Nature of the experiment: pull-down; GST pull-down: purified GST-SIX1 fusion protein with purified His-tagged ERK1/2. Conditions: both partners purified.

For another experiment, the target named is T2, His-tagged ERK2 (UniProt P28482 1-360).
T2 construct: Extracellular signal-regulated protein kinase 2 (ERK2); Built in pET28a; also called His-tagged ERK1/2; source: E. coli BL21, purified (His-Sepharose beads)
The description is as above. To be noted: both partners purified.

T1 sequence (P27361 whole entry): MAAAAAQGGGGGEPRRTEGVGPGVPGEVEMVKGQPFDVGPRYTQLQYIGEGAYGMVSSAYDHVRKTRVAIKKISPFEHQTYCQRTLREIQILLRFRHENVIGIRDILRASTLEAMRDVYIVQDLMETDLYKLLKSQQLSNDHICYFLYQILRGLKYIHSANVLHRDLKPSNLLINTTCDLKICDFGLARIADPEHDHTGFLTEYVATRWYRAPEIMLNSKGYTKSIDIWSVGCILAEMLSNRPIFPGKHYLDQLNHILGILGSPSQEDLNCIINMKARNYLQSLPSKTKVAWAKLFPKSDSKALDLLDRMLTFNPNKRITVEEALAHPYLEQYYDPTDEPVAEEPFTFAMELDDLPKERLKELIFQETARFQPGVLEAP
T2 sequence (P28482 whole entry): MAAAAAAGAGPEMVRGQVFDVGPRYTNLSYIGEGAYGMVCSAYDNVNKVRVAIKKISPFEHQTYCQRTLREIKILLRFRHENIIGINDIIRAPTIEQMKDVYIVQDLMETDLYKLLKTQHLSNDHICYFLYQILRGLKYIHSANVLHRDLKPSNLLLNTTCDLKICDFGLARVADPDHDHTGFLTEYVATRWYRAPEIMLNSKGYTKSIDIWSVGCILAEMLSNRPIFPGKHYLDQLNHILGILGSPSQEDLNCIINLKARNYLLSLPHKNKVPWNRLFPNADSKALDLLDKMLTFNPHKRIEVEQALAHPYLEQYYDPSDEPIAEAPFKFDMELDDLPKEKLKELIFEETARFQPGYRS

B1: GST-SIX1 fusion protein (natural protein, human, UniProt Q15475 1-284, looked up)
chain: MSMLPSFGFTQEQVACVCEVLQQGGNLERLGRFLWSLPACDHLHKNESVLKAKAVVAFHRGNFRELYKILESHQFSPHNHPKLQQLWLKAHYVEAEKLRGRPLGAVGKYRVRRKFPLPRTIWDGEETSYCFKEKSRGVLREWYAHNPYPSPREKRELAEATGLTTTQVSNWFKNRRQRDRAAEAKERENTENNNSSSNKQNQLSPLEGGKPLMSSSEEEFSPPQSPDQNSVLLLQGNMGHARSSNYSLPGLTASQPSHGLQTHQHQLQDSLLGPLTSSLVDLGS
notes: Sine oculis homeobox 1 (SIX1), human; Built in pGEX-KG; source: E. coli BL21, purified (glutathione-Sepharose 4B)
With B1, the binding result with His-tagged ERK1 and with His-tagged ERK2 was “binds” in each case.
